Data as given in US20260217833A1 (APTEVO RESEARCH AND DEVELOPMENT, published 2026).

Assays:
Human PD-L1 full-length = target: T1, Human PD-L1 full-length (human, UniProt Q9NZQ7 19-290); assay: MSD cell binding, CHOK1SV/human PD-L1 cells; x axis without printed unit
T1 construct: also called PDL01021; CHOK1SV/huPDL1

Cyno PD-L1 full-length = target: T2, Cyno PD-L1 full-length (cynomolgus, UniProt Q9NZQ7 19-290 (human entry)); assay: MSD cell binding, CHOK1SV/cynomolgus PD-L1 cells; x axis without printed unit
T2 construct: also called PDL01022; CHOK1SV/cynoPDL1
T2 sequence (Q9NZQ7 other isoform, or with tags, fused parts or gaps): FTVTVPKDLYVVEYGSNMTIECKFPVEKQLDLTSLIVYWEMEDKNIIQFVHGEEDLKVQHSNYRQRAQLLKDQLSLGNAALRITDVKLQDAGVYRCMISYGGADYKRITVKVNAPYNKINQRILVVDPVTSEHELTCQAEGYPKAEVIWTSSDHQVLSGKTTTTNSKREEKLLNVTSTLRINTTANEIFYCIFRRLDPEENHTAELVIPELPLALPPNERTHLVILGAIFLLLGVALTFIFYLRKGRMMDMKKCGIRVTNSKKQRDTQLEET

T1 sequence (Q9NZQ7 19-290): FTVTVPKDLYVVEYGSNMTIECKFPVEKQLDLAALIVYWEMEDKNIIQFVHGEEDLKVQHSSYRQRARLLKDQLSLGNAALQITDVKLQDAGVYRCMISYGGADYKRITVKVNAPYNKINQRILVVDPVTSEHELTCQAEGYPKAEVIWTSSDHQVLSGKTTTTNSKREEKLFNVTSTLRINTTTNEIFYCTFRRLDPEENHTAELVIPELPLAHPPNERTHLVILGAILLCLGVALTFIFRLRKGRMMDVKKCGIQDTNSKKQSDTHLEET

Binder | binding result (Human PD-L1 full-length) | binding result (Cyno PD-L1 full-length)
PDL01036 (6F6HL x human IgG1 WT Fc) (Fc fusion, also called 6F6 clone PDL0136; not shown: human IgG1 WT Fc) QGQMQQSGAELVKPGASVKLSCKTSGFTFSSSYITWLKQKPGQSLEWIAWIYVGTGGISYNQKFTGKAQLTVDTSSSTAYMQFSSLTTEDSAIYYCARHGRYHWYFDVWGAGTTVTVSSGGGGSGGGGSGGGGSGGGGSDIVMTQSHKFMSTSVGDRVTITCKASQDVGTAVAWYQKKPGQSPKLLISWASTRHTGVPDRFTGSGSGTDFTLTISNVQSEDLADYFCQQYSSYPYTFGGGTNLEIK | binds | binds
PDL01038 (Fc fusion, also called 7A3-2HL x human IgG1 WT Fc; not shown: human IgG1 WT Fc (hinge-CH2-CH3) and its junction to the scFv) scFv: EVQLQESGPSLVKPSQTLSLTCSVTGDSITSGYWNWIRKFPGNRLEYMGFRSYSGTTYYNPSLKSRISITRDTSKNQYYLQLNSVTTEDTATYYCARFSDFGSSENTMDYWGQGTSVTVSSGGGGSGGGGSGGGGSGGGGSDVQITQSPSYLAASPGETITINCRASKSISKYLAWYQEKPGKTNKLLIYSGSTLQSGIPSRFSGSGSGTDFTLTISSLEPEDFAMYYCQQHNEYPFTFGAGTKLEIK | binds | binds
PDL01039 (Fc fusion, also called 7H11HL x human IgG1 WT Fc; not shown: human IgG1 WT Fc (hinge-CH2-CH3) and its junction to the scFv) scFv: EVQLQESGPSLVKPSQTLSLTCSVTGDSITSGYWNWIRKFPGKKLEYMGYISYTGSTYYNPSLKSRISIARDTSKNQYFLQLNSVTTEDTATYYCTRGENWDGGYFDYWGQGTTLTVSSGGGGSGGGGSGGGGSGGGGSDIVLTQSPASLAVSLGQRATISCRASKSVSKSGYSYLHWYQQKPGQTPKLLIYLASNLESGVPARFSGSGSGTDFTLNIHPVEEEDAATYYCQHSWELPYTFGGGTKLEIK | binds | binds
PDL01051 (antibody, human IgG1, kappa, V domains shown, positive control; also called 7A3 chimeric mAb) VH: EVQLQESGPSLVKPSQTLSLTCSVTGDSITSGYWNWIRKFPGNRLEYMGFRSYSGTTYYNPSLKSRISITRDTSKNQYYLQLNSVTTEDTATYYCARFSDFGSSENTMDYWGQGTSVTVSS VL: DIVMTQSHKFMSTSVGDRVTITCKASQDVGTAVAWYQKKPGQSPKLLISWASTRHTGVPDRFTGSGSGTDFTLTISNVQSEDLADYFCQQYSSYPYTFGGGTNLEIKR | binds | binds
PDL01041 (Fc fusion, also called 2C11LH x human IgG1 WT Fc; not shown: human IgG1 WT Fc and any junction residues between scFv and hinge) scFv: DIQMTQSPASLSASVGETVTITCRASENIYSFLAWYQQKQGKSPQLLVYKAKTLTEGVPSRFSGSGSGTQFSLKINSLQPEDFGSYYCQHHYGSPPETFGGGTKVEIKGGGGSGGGGSGGGGSGGGGSDVKLVESGGGLVKPGGSLKLSCAASGFTFSSYTMSWVRQTPEKRLEWVATISSGGNYTYYPDSVKGRFTISRDNAKNTLYLQLSSLKSEDTAMYYCTRDQAYYGNLFTYWGQGTLVTVSA | binds | binds
PDL01050 (antibody, human IgG1, kappa, V domains shown, positive control; also called 5F11 chimeric mAb) VH: EVKFEESGGGLVQPGGSMKLSCFASGFTFSYYWMNWVRQSPEKGLEWIAEIRLKSNNYATHYAESVKGRFTISRDDSKSSVYLEMNNLRAEDTGIYHCTRPPIYYGNYEAYWGQGTLVTVSA VL: DIQMTQSPSSLSASLGGKVTITCKASQDINKYIAWYQHKPGKGPRLLIHYTSILQPGIPSRFSGSGSGRDYSFSISNLEPEDIATYYCLQYDNLRTFGGGTKLEIKR | binds | binds
PDL01042 (Fc fusion, also called 3G5LH x human IgG1 WT Fc; not shown: human IgG1 WT Fc (hinge-CH2-CH3) fused C-terminal to the scFv, and its junction) scFv: DIQMTQTTSSLSASLGDRVTISCSASQGIRNYLNWYQQKPDGTVKLLIYYTSTLHSGVPSRFSGSGSGTDYSLTISNLEPEDIATYYCQQYSKLPWTFGGGTRLEIKGGGGSGGGGSGGGGSGGGGSQIQLQQSGPELVKPGASVKISCKASGYTFTDYYINWVKQKPEQGLEWIGWTFPGSINTKYNEKFKGKATLTVDTSSSTAYMQLNSLTSEDTAVYFCARSPYEFDYWGQGTTLTVSS | binds | binds
